B1: HuMab 059 (antibody, V domains shown)
VH: QVQLVQSGAEVKKPGASVRVPCKASGYTFTRYGISWVRQAPGQGLEWMGWISAYNGKTYYAQKLQGRVTMTTDTSTSTAYMELRSLRSDDTAVYYCARSPLLWFEELYFDYWGQGTLVTVSS
VL: EIVLTQSPGTLSLSPGERATLSCRASQSVSSTYLAWYQQKPGQAPRLLIYGASSRATGIPDRFSGSGSGTDFTLTISRLEPEDFAVYYCQQYGTSLFTFGPGTKVDIK
notes: also called PC1014-059
B2: HuMab 111 (antibody, V domains shown)
VH: QVQLVQSGAEVKKPGSSVKVSCKASGGTFSSYGISWVRQAPGPGLEWMGRIIPILGIANYAQKFQGRVTITADKSTNTAYMELSSLRSEDTAVYYCARDQEYSSNWYYWGQGTLVTVSS
VL: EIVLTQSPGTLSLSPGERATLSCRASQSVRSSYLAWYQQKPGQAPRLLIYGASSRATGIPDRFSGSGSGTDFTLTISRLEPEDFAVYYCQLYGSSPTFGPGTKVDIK
B3: HuMab 005 (antibody, V domains shown)
VH: EVQLVQSGAEVKKPGESLKISCKASGYSFHFYWIGWVRQMPGKGLEWMGSIYPGDSDTRYRPSFQGQVTISADKSISTAYLQWTSLKASDTAIYYCARQRGDYYYFYGMDVWGQGTTVTVSS
VL: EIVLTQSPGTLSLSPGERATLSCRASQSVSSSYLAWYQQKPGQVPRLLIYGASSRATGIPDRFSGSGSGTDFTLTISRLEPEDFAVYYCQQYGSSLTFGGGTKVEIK
notes: also called PC1014-005; TH1014-005
B4: HuMab 106 (antibody, V domains shown)
VH: EVQLVQSGAEVKKPGESLKISCKGSGYSFTRYWIGWVRQMPGKGLEWMGIIYPGDSDTRYSPSFQGQVTISADKSISTAYLQWSSLKASDTAMYYCARLTGDRGFDYYSGMDVWGQGTTVTVSS
VL: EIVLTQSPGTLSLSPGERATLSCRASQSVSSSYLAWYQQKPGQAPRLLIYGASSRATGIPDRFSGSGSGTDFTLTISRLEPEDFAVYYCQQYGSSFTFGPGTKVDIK
B5: HuMab 060 (antibody, V domains shown)
VH: EVQLVQSGAEVKKPGESLKISCKGSGYRFTSYWIGWVRQMPGKGLEWMGSIYPGDSYTRNSPSFQGQVTISADKSIATAYLQWNSLKASDTAMYYCARHAGDFYYFDGLDVWGQGTTVTVSS
VL: not shown
notes: also called PC1014-060

Each binder was assayed against T1, human epidermal growth factor receptor 2 (HER2), membrane-bound on cells (human, UniProt P04626 23-1255) (assay: cell-based or functional assay).
With B1 the “EC50, fab-CypHer5E internalization, AU565” value was 0.0148 µg/mL and the “Maximal MFI, fab-CypHer5E internalization, AU565” value (“Maximal MFI” for short) was 77100 MFI.
With B2 the “EC50, fab-CypHer5E internalization, AU565” value was 0.0352 µg/mL and the “Maximal MFI” value was 81700 MFI.
In the case of B3, the “EC50, fab-CypHer5E internalization, AU565” value is reported as 0.0214 µg/mL and the “Maximal MFI” value is reported as 95100 MFI.
B4 was tested, and the “EC50, fab-CypHer5E internalization, AU565” value was 0.0686 µg/mL and the “Maximal MFI” value was 57400 MFI.
In the case of B5, the “EC50, fab-CypHer5E internalization, AU565” value is reported as 0.0362 µg/mL and the “Maximal MFI” value is reported as 68200 MFI.

Each binder was assayed against T2, HER2ECDHis (human, UniProt P04626 23-653, biotinylated in the cross-block ELISA (sites not given)) (assay: ELISA; competitor 005).
T2 construct: range 1-653; expressed in HEK-293F; also called soluble HER2; biotinylated HER2ECDHis
In the case of B1, the “% binding vs no competitor” value is reported as 13%.
For B2, the “% binding vs no competitor” value was 51%.
In the case of B3, the “% binding vs no competitor” value is reported as 18%.
For B4, the “% binding vs no competitor” value was 25%.
In the case of B5, the “% binding vs no competitor” value is reported as 30%.

Molecular target: T1, human epidermal growth factor receptor …
Test: cell-based or functional assay
Remark: another data set of the same source
B1 was tested, and the “% cells killed, AU565, anti-kappa-ETA'-conjugated” value (from here on “% cells killed, AU565”) was 67% and the “EC50 of cell kill, AU565, anti-kappa-ETA'-conjugated” value (“EC50 of cell kill, AU565” below) was 0.0677 µg/mL.
For B2, the “% cells killed, AU565” value was 72% and the “EC50 of cell kill, AU565” value was 0.0242 µg/mL.
B3 was tested, and the “% cells killed, AU565” value was 69.7% and the “EC50 of cell kill, AU565” value was 0.0151 µg/mL.
B4 was tested, and the “% cells killed, AU565” value was 59.1% and the “EC50 of cell kill, AU565” value was 0.108 µg/mL.
With B5 the “% cells killed, AU565” value was 64.3% and the “EC50 of cell kill, AU565” value was 0.0794 µg/mL.

Molecular target: T1, human epidermal growth factor receptor …
Test: cell-based or functional assay
Remark: another data set of the same source
In the case of B3, the “% cells killed, A431, anti-kappa-ETA'-conjugated” value is reported as 88.5% and the “EC50 of cell kill, A431, anti-kappa-ETA'-conjugated” value is reported as roughly 0.0101 µg/mL.
With B5 the “% cells killed, A431, anti-kappa-ETA'-conjugated” value was 85% and the “EC50 of cell kill, A431, anti-kappa-ETA'-conjugated” value was roughly 0.01 µg/mL.

These binders were tested against T2, HER2ECDHis (assay: ELISA; competitor 006).
Description: (§1) Next, the ELISA wells were washed with PBST (PBS supplemented with 0.05% Tween-20 [Sigma-Aldrich, Zwijndrecht, The Netherlands]) and blocked for one hour at room temperature (RT) with PBSTC (PBST supplemented 2% [v/v] chicken serum [Gibco, Paisley, Scotland]). The ELISA wells were then washed with PBST and incubated for one hour at RT with HER2ECDHis serially diluted in PBSTC (0.25-2 μg/mL in 2-fold dilutions). […] The plate was thereafter washed with PBST and incubated for one hour with 0.1 μg/mL Streptavidin-poly-HRP (Sanquin, Amsterdam, The Netherlands) diluted in PBST. After washing, the reaction was visualized through a 15 minutes incubation with 2,2′-azino-bis (3-ethylbenzothiazoline-6-sulfonic acid) (ABTS: one ABTS tablet diluted in 50 mL ABTS buffer (Roche Diagnostics, Almere, The Netherlands)) at RT protected from light. The colorization was stopped by adding an equal volume of oxalic acid (Sigma-Aldrich, Zwijndrecht, The Netherlands). Fluorescence at 405 nm was measured on a microtiter plate reader (Biotek Instruments, Winooski, USA).
(§2) Each HER2 antibody was coated to the ELISA wells at the sub-optimal dose that was determined as described above. After blocking of the ELISA wells, the wells were incubated with the predetermined concentration of 1 μg/mL biotinylated HER2ECDHis in the presence or absence of an excess of a second (competitor) HER2 antibody. The ELISA was then performed as described above. […] Percentage competition was then determined as 100 minus the percentage of inhibition.
In the case of B1, the “% binding vs no competitor” value is reported as 11%.
B2 was tested, and the “% binding vs no competitor” value was 10%.
For B3, the “% binding vs no competitor” value was 15%.
For B4, the “% binding vs no competitor” value was 25%.
In the case of B5, the “% binding vs no competitor” value is reported as 6%.

The binders below were run against T2, HER2ECDHis (assay: ELISA; competitor Pert).
Description: as §1, §2
In the case of B1, the “% binding vs no competitor” value is reported as 107%.
For B2, the “% binding vs no competitor” value was 102%.
In the case of B3, the “% binding vs no competitor” value is reported as 115%.
With B4 the “% binding vs no competitor” value was 275%.
For B5, the “% binding vs no competitor” value was 99%.

What follows are binders tested against T2, HER2ECDHis (assay: ELISA; competitor C1).
Description: as §1, §2
In the case of B1, the “% binding vs no competitor” value is reported as 78%.
In the case of B2, the “% binding vs no competitor” value is reported as 122%.
For B3, the “% binding vs no competitor” value was 157%.
With B4 the “% binding vs no competitor” value was 471%.
In the case of B5, the “% binding vs no competitor” value is reported as 108%.

The binders below were run against T2, HER2ECDHis (assay: ELISA; competitor F5).
Description: as §1, §2
In the case of B1, the “% binding vs no competitor” value is reported as 128%.
With B2 the “% binding vs no competitor” value was 119%.
B3 was tested, and the “% binding vs no competitor” value was 227%.
For B4, the “% binding vs no competitor” value was 495%.
B5 was tested, and the “% binding vs no competitor” value was 126%.

These binders were tested against T2, HER2ECDHis (assay: ELISA; competitor 111).
Description: as §1, §2
In the case of B1, the “% binding vs no competitor” value is reported as 12%.
B2 was tested, and the “% binding vs no competitor” value was 14%.
In the case of B3, the “% binding vs no competitor” value is reported as 32%.
In the case of B4, the “% binding vs no competitor” value is reported as 21%.
In the case of B5, the “% binding vs no competitor” value is reported as 35%.

The binders below were run against T2, HER2ECDHis (assay: ELISA; competitor Tras).
Description: as §1, §2
In the case of B1, the “% binding vs no competitor” value is reported as 117%.
B2 was tested, and the “% binding vs no competitor” value was 110%.
In the case of B3, the “% binding vs no competitor” value is reported as 126%.
B4 was tested, and the “% binding vs no competitor” value was 323%.
With B5 the “% binding vs no competitor” value was 106%.

Each binder was assayed against T2, HER2ECDHis (assay: ELISA; competitor 106).
Description: as §1, §2
In the case of B1, the “% binding vs no competitor” value is reported as 23%.
With B2 the “% binding vs no competitor” value was 75%.
For B3, the “% binding vs no competitor” value was 54%.
In the case of B4, the “% binding vs no competitor” value is reported as 26%.
In the case of B5, the “% binding vs no competitor” value is reported as 37%.

Each binder was assayed against T2, HER2ECDHis (assay: ELISA; competitor 059).
Description: as §1, §2
With B1 the “% binding vs no competitor” value was 12%.
With B2 the “% binding vs no competitor” value was 65%.
In the case of B3, the “% binding vs no competitor” value is reported as 22%.
B4 was tested, and the “% binding vs no competitor” value was 25%.
With B5 the “% binding vs no competitor” value was 14%.

What follows are binders tested against T2, HER2ECDHis (assay: ELISA; competitor 060).
Description: as §1, §2
With B1 the “% binding vs no competitor” value was 11%.
B2 was tested, and the “% binding vs no competitor” value was 36%.
B3 was tested, and the “% binding vs no competitor” value was 12%.
For B4, the “% binding vs no competitor” value was 23%.
For B5, the “% binding vs no competitor” value was 19%.
